Reference: patent publication US12295987B2, “Method of using a GIP/GLP1 co-agonist for diabetes” (Eli Lilly and Company, priority 2018, dated 2025)

Target: T1, human gastric inhibitory peptide receptor (hGIPR) (Homo sapiens, UniProt P48546)
T1 construct: expressed in transfected cells; host or cells: HEK293
T1 sequence (P48546 22-466): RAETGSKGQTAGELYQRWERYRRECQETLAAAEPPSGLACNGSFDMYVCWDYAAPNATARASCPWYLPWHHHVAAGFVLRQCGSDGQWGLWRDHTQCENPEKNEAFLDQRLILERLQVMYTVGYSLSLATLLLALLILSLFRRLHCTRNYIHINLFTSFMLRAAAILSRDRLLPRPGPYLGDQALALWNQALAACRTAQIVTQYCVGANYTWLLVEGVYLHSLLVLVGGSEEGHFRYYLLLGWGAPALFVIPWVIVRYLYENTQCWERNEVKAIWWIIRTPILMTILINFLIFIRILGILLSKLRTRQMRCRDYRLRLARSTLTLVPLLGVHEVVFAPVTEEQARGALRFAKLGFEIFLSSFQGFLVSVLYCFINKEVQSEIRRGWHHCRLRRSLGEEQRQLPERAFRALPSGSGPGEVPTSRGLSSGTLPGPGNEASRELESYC
Assay: cAMP pharmacological functional assay in presence of 0.1% casein, hGIPR
Type: cell-based
Conditions: ratio of hGIPR to hGLP1R cAMP EC50 ratios

## Y-Aib-EGT-αMeF(2F)-TSDYSI-αMeL-LDEK((2-[2-(2-Amino-ethoxy)-ethoxy]-acetyl)2-(γGlu)-CO—(CH2)18—CO2H)AQ-Aib-EFIEYLIEGGPSSGAPPPS-NH2 (YXEGTXTSDYSIXLDEKAQXEFIEYLIEGGPSSGAPPPS; Aib, αMeF(2F), αMeL; acylated lysine C20 diacid; amide; (2)..(2) Xaa at position 2 is Aib; (6)..(6) Xaa at position 6 is alpha-methyl-Phe(2F); (13)..(13) Xaa at position 13 is alpha-methyl-Leu; MOD_RES (17)..(17) Lys at position 17 is chemically modified by conjugation of the epsilon-amino group of the Lys side chain with (2-[2-(2-amino-ethoxy)-ethoxy]-acetyl)2-(gamma-Glu)-CO-(CH2)18- CO2H; (20)..(20) Xaa at position 20 is Aib; MOD_RES (39)..(39) Ser a) [Peptide 118]
  [hGIPR/hGLP1R] EC50 Ratio: 3.03

## Y-Aib-EGT-αMeF(2F)-TSDYSI-αMeL-LDEK((2-[2-(2-Amino-ethoxy)-ethoxy]-acetyl)2-(γGlu)-CO—(CH2)18—CO2H)AQ-Aib-EFIHYLIEGGPSSGAPPPS-NH2 (YXEGTXTSDYSIXLDEKAQXEFIHYLIEGGPSSGAPPPS; Aib, αMeF(2F), αMeL; acylated lysine C20 diacid; amide; (2)..(2) Xaa at position 2 is Aib; (6)..(6) Xaa at position 6 is alpha-methyl-Phe(2F); (13)..(13) Xaa at position 13 is alpha-methyl-Leu; MOD_RES (17)..(17) Lys at position 17 is chemically modified by conjugation of the epsilon-amino group of the Lys side chain with (2-[2-(2-amino-ethoxy)-ethoxy]-acetyl)2-(gamma-Glu)-CO-(CH2)18- CO2H; (20)..(20) Xaa at position 20 is Aib; MOD_RES (39)..(39) Ser a) [Peptide 153]
  [hGIPR/hGLP1R] EC50 Ratio: 3.39

## Y-Aib-EGT-αMeF(2F)-TSDYSI-αMeL-LDEK((2-[2-(2-Amino-ethoxy)-ethoxy]-acetyl)2-(γGlu)-CO—(CH2)18—CO2H)AQ-Aib-EFIPYLIEGGPSSGAPPPS-NH2 (YXEGTXTSDYSIXLDEKAQXEFIPYLIEGGPSSGAPPPS; Aib, αMeF(2F), αMeL; acylated lysine C20 diacid; amide; (2)..(2) Xaa at position 2 is Aib; (6)..(6) Xaa at position 6 is alpha-methyl-Phe(2F); (13)..(13) Xaa at position 13 is alpha-methyl-Leu; MOD_RES (17)..(17) Lys at position 17 is chemically modified by conjugation of the epsilon-amino group of the Lys side chain with (2-[2-(2-amino-ethoxy)-ethoxy]-acetyl)2-(gamma-Glu)-CO-(CH2)18- CO2H; (20)..(20) Xaa at position 20 is Aib; MOD_RES (39)..(39) Ser a) [Peptide 151]
  [hGIPR/hGLP1R] EC50 Ratio: 9.42

## Y-Aib-EGT-αMeF(2F)-TSDYSI-αMeL-LDEK((2-[2-(2-Amino-ethoxy)-ethoxy]-acetyl)2-(γGlu)-CO—(CH2)18—CO2H)AQ-Aib-EFISYLIEGGPSSGAPPPS-NH2 (YXEGTXTSDYSIXLDEKAQXEFISYLIEGGPSSGAPPPS; Aib, αMeF(2F), αMeL; acylated lysine C20 diacid; amide; (2)..(2) Xaa at position 2 is Aib; (6)..(6) Xaa at position 6 is alpha-methyl-Phe(2F); (13)..(13) Xaa at position 13 is alpha-methyl-Leu; MOD_RES (17)..(17) Lys at position 17 is chemically modified by conjugation of the epsilon-amino group of the Lys side chain with (2-[2-(2-amino-ethoxy)-ethoxy]-acetyl)2-(gamma-Glu)-CO-(CH2)18- CO2H; (20)..(20) Xaa at position 20 is Aib; MOD_RES (39)..(39) Ser a) [Peptide 150]
  [hGIPR/hGLP1R] EC50 Ratio: 3.34

## Y-Aib-EGT-αMeF(2F)-TSDYSI-αMeL-LDEK((2-[2-(2-Amino-ethoxy)-ethoxy]-acetyl)2-(γGlu)-CO—(CH2)18—CO2H)AQ-Aib-EFIVYLIEGGPSSGAPPPS-NH2 (YXEGTXTSDYSIXLDEKAQXEFIVYLIEGGPSSGAPPPS; Aib, αMeF(2F), αMeL; acylated lysine C20 diacid; amide; (2)..(2) Xaa at position 2 is Aib; (6)..(6) Xaa at position 6 is alpha-methyl-Phe(2F); (13)..(13) Xaa at position 13 is alpha-methyl-Leu; MOD_RES (17)..(17) Lys at position 17 is chemically modified by conjugation of the epsilon-amino group of the Lys side chain with (2-[2-(2-amino-ethoxy)-ethoxy]-acetyl)2-(gamma-Glu)-CO-(CH2)18- CO2H; (20)..(20) Xaa at position 20 is Aib; MOD_RES (39)..(39) Ser a) [Peptide 149]
  [hGIPR/hGLP1R] EC50 Ratio: 3.76

## Y-Aib-EGT-αMeF(2F)-TSDYSI-αMeL-LDEK((2-[2-(2-Amino-ethoxy)-ethoxy]-acetyl)2-(εK)-CO—(CH2)18—CO2H)AQ-Aib-EFI-(D-Glu)-YLIEGGPSSGAPPPS-NH2 (YXEGTXTSDYSIXLDEKAQXEFIXYLIEGGPSSGAPPPS; Aib, αMeF(2F), αMeL, D-Glu; εK-lipidated K; amide; (2)..(2) Xaa at position 2 is Aib; (6)..(6) Xaa at position 6 is alpha-methyl-Phe(2F); (13)..(13) Xaa at position 13 is alpha-methyl-Leu; MOD_RES (17)..(17) Lys at position 17 is chemically modified by conjugation of the epsilon-amino group of the Lys side chain with (2-[2-(2-amino-ethoxy)-ethoxy]-acetyl)2-(epsilon-Lys)-CO-(CH2)18- CO2H; (20)..(20) Xaa at position 20 is Aib; (24)..(24) Xaa at posi) [Peptide 216]
  [hGIPR/hGLP1R] EC50 Ratio: 3.75

## Y-Aib-EGT-αMeF(2F)-TSDYSI-αMeL-LDEK((2-[2-(2-Amino-ethoxy)-ethoxy]-acetyl)2-CO—(CH2)16—CO2H)AQ-Aib-EFI-(D-Glu)-YLIEGGPSSGAPPPS-NH2 (YXEGTXTSDYSIXLDEKAQXEFIXYLIEGGPSSGAPPPS; Aib, αMeF(2F), αMeL, D-Glu; lipidated K; amide; (2)..(2) Xaa at position 2 is Aib; (6)..(6) Xaa at position 6 is alpha-methyl-Phe(2F); (13)..(13) Xaa at position 13 is alpha-methyl-Leu; MOD_RES (17)..(17) Lys at position 17 is chemically modified by conjugation of the epsilon-amino group of the Lys side chain with (2-[2-(2-amino-ethoxy)-ethoxy]-acetyl)2-CO-(CH2)16-CO2H; (20)..(20) Xaa at position 20 is Aib; (24)..(24) Xaa at position 24 is D-Gl) [Peptide 214]
  [hGIPR/hGLP1R] EC50 Ratio: 3.98
